We go through six molecules from patent US20110059555, “BRANCHED AND MULTI-CHAIN NUCLEIC ACID SWITCHES FOR SENSING AND SCREENING” (Syracuse University, published 2011).

The target of data set [1] is NCp7 (nucleocapsid protein, Zn2.NCp7(1-55)) (HIV-1) (UniProt P35962). Conditions: Trp assay; virtually identical Kd.
Data set [2] has the same target. Particulars: virtually no change in Kd.
For data set [3], the target named is T1, NCp7 (nucleocapsid protein, Zn2.NCp7(1-55)) (HIV-1, UniProt P35962 SEQ:1-55).
T1 chain: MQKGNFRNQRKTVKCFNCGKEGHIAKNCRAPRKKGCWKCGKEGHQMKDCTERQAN
Kind of data set: Trp assay; K2 similar to that of SL3 RNA. Conditions: label: 5'-dabcyl, T-FAM at 17 of the all-DNA strand; tethered duplex with hairpins (O-form favoured).

Data set [4] deals with T1, NCp7 (nucleocapsid protein, …). Kind of data set: equilibration with NCp7 within a minute at 10 nM switch. Conditions: label: 5'-dabcyl, T-FAM at 17 of the all-DNA strand; tethered duplex switch.

In data set [1], SL3 16mer returned a binding signal (fold Kd vs SL3 20mer) of 1. In data set [2], SL3 A315-U322 had a binding signal (fold Kd vs SL3) of 1.

For SL3 C315-G, the binding signal (fold Kd vs SL3) in data set [2] was determined as 1. On the same count and under the same terms, under SL3 G316-C321 stands 1.

B1: M2 tethered switch (mixed)
DNA: GCATGCCTCCGCATGCTCACAGCACGACTCAGATGG
mixed: CCATCTGAGTCGTGCACGCUAGCGGUGGCUAGC
modifications: DNA strand / DNA-RNA chimera (UAGCGGUGGCUAGC is RNA)
For the molecule B1, the binding signal in data set [3] is about 1 fold K2 vs SL3 RNA.

B2: M3 tethered switch (mixed)
DNA: GCTATCCACCGATAGCTCACAGCACGACTCAGATGG
mixed: B1 mixed
modifications: DNA strand / DNA-RNA chimera (UAGCGGUGGCUAGC is RNA)
For the molecule B2, in data set [4], the binding result is recorded as “binds”.
